Laboratory results as given in patent US12066430.
Each block holds one substance with its values, some of them ahead of it.

Tests used:
Assay in all cases: cell-based or functional assay
[1] = biological target: single-chain trimer (SCT) of HLA-A2/NYESO1 157-165(C165V), on cells (human)
[2] = biological target: single-chain trimer (SCT) of HLA-A2/MART1 26-35(A27L), on cells (human)
[3] = biological target: HLA-A2 on control CD80+HLA-A2+ K562 cells (no defined peptide) (human)
[4] = biological target: single-chain trimer (SCT) of HLA-A2 with the USP7 mutant 9-mer peptide …, on K562 cells (human)

percentage of trogocytosis^+ NYESO1-K562 target cells (diluted 1:10,000 in control cells) [1]: 70.8%
share of NYESO1-K562 among trogocytosis^+ target cells (1:1 mixture of NYESO1-K562 and MART1-K562, read by TCR dextramer staining) [1]: 95.1%
share of NYESO1-K562 among trogocytosis^- target cells (1:1 mixture, co-incubated with 1G4-Jurkat) [1]: 23.7%
trogocytosis (TCR transfer to K562) of CD8 co-expressing Jurkat cells relative to those only expressing TCR [1]: 3 fold
percentage of trogocytosis^+ MART1-K562 cells (one per 10,000 control cells) [2]: 1.6%
share of MART1-K562 among trogocytosis^- target cells (1:1 mixture, co-incubated with 1G4-Jurkat) [2]: 70.8%
percentage of trogocytosis^+ control CD80^+HLA-A2^+ K562 cells (NYESO1-K562 dilution experiment) [3]: 0.33%
percentage of trogocytosis^+ control cells (MART1-K562 dilution experiment) [3]: 0.41%
Substance: 1G4 TCR (A2/NYESO1 157-165-specific), expressed on cells

percentage of trogocytosis^+ NYESO1-K562 target cells (diluted 1:10,000 in control cells) [1]: 0%
share of NYESO1-K562 among trogocytosis^- target cells (1:1 mixture, co-incubated with F5-Jurkat) [1]: 76.3%
percentage of trogocytosis^+ MART1-K562 cells (one per 10,000 control cells) [2]: 73.4%
share of MART1-K562 among trogocytosis^+ target cells (1:1 mixture, co-incubated with F5-Jurkat) [2]: 94.9%
share of MART1-K562 among trogocytosis^- target cells (1:1 mixture, co-incubated with F5-Jurkat) [2]: 18.8%
shift in LNGFR and TCR staining of K562 target cells [2]: 2 to 3 fold
shift in streptavidin staining of K562 target cells (transfer of biotinylated Jurkat membrane proteins) [2]: 3.5 fold
trogocytosis (TCR transfer to K562) of CD8 co-expressing Jurkat cells relative to those only expressing TCR [2]: 3 fold
percentage of trogocytosis^+ control CD80^+HLA-A2^+ K562 cells (NYESO1-K562 dilution experiment) [3]: 0.35%
percentage of trogocytosis^+ control cells (MART1-K562 dilution experiment) [3]: 0.46%
Substance: F5 TCR (HLA-A2/MART1 26-35-specific), expressed on cells
Specific Cytotoxic Killing (Avg. % Specific Lysis), E:T 2 to 1 (Avg. % Specific Lysis) [2]: 0.16
Specific Cytotoxic Killing (Avg. % Specific Lysis), E:T 4 to 1 (Avg. % Specific Lysis) [2]: 0.268
Specific Cytotoxic Killing (Avg. % Specific Lysis), E:T 8 to 1 (Avg. % Specific Lysis) [2]: 0.377
Specific Cytotoxic Killing (Avg. % Specific Lysis), E:T 16 to 1 (Avg. % Specific Lysis) [2]: 0.593
Specific Cytotoxic Killing (Avg. % Specific Lysis), E:T 2 to 1 (Avg. % Specific Lysis) [4]: 0.0644
Specific Cytotoxic Killing (Avg. % Specific Lysis), E:T 4 to 1 (Avg. % Specific Lysis) [4]: 0.0366
Specific Cytotoxic Killing (Avg. % Specific Lysis), E:T 8 to 1 (Avg. % Specific Lysis) [4]: 0.0406
Specific Cytotoxic Killing (Avg. % Specific Lysis), E:T 16 to 1 (Avg. % Specific Lysis) [4]: 0
